In the test the target is T1, FN14 on transiently transfected 293-F cells (human) (UniProt Q9NP84).
T1 sequence (looked up): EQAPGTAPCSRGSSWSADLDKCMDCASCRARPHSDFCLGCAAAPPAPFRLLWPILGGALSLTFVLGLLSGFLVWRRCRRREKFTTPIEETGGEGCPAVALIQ
As to the kind of experiment: apparent affinity of the recombinant chimeric mAb, saturation binding.

B1: anti-FN14 mAb FS24 (after 7 additional selections, recombinant chimeric mAb) (antibody, from another filing, V domains shown)
VH: AVTLDESGGGLQTPGGALSLVCKASGFTFSSYDMAWVRQEPGKGLEWVAGIDYDGSGRRYAPAVKGRATISRDNGQSTLRLQLNNLRAEDTGTYYCTKCGYTGGCDYEGGYIDAWGHGTEVIVSS
VL: ALTQPSSVSANPGETVKITCSGGGSSYYAGSYYYGWYQQKAPGSAPVTLIYYNNKRPSDIPSRFSGSLSGSTNTLTITGVRADDEAVYFCGSIDNSGAAFGAGTTLTVLG
Regarding B1, the Kd was found to be 0.26 nM.

The values are drawn from patent US20130261012A1.
